{"source": "patent US20130273020A1", "about": "“ANTIFUNGAL COMPOSITION” (COMVITA NEW ZEALAND LIMITED, priority 2010, published 2013)", "molecules": {"B1": {"name": "lactoferrin (protein, UniProt P02788 20-710, looked up)", "Lactotransferrin": "GRRRSVQWCAVSQPEATKCFQWQRNMRKVRGPPVSCIKRDSPIQCIQAIAENRADAVTLDGGFIYEAGLAPYKLRPVAAEVYGTERQPRTHYYAVAVVKKGGSFQLNELQGLKSCHTGLRRTAGWNVPIGTLRPFLNWTGPPEPIEAAVARFFSASCVPGADKGQFPNLCRLCAGTGENKCAFSSQEPYFSYSGAFKCLRDGAGDVAFIRESTVFEDLSDEAERDEYELLCPDNTRKPVDKFKDCHLARVPSHAVVARSVNGKEDAIWNLLRQAQEKFGKDKSPKFQLFGSPSGQKDLLFKDSAIGFSRVPPRIDSGLYLGSGYFTAIQNLRKSEEEVAARRARVVWCAVGEQELRKCNQWSGLSEGSVTCSSASTTEDCIALVLKGEADAMSLDGGYVYTAGKCGLVPVLAENYKSQQSSDPDPNCVDRPVEGYLAVAVVRRSDTSLTWNSVKGKKSCHTAVDRTAGWNIPMGLLFNQTGSCKFDEYFSQSCAPGSDPRSNLCALCIGDEQGENKCVPNSNERYYGYTGAFRCLAENAGDVAFVKDVTVLQNTDGNNNEAWAKDLKLADFALLCLDGKRKPVTEARSCHLAMAPNHAVVSRMDKVERLKQVLLHQQAKFGRNGSDCPDKFCLFQSETKNLLFNDNTECLARLHGKTTYEKYLGPQYVAGITNLKKCSTSPLLEACEFLRK", "notes": "metal chelator that scavenges free transition metal ions, specifically iron"}}, "type_in_all_cases": "cell-based", "key": {"Candida albicans [1]": {"tested_on": "Candida albicans", "test": "Candida albicans growth curves at 28° C. by absorbance (540 nm), percentage inhibition vs media alone (Examples 2 and 3)", "settings": "lactoferrin used in isolation, 0.2% and 0.6% w/v; FIG. 5", "protocol": "A further experiment was completed measuring the growth curves of Candida albicans grown at 28° C. measured by absorbance (540 nm). […] Catalase was added to remove any confounding effects from hydrogen peroxide. As may be appreciated, the peroxide effect can vary between and within honeys giving rise to poor results that are difficult to interpret. Removal of the peroxide effect gives clearer result. It should be noted that a lower growth temperature than usual was used to prevent filamentous growth, which is an artifact of these Candida assays. The results found were clean easily measurable results and were verified under a microscope to be accurate. A further experiment was completed measuring the percentage inhibition expressed as a proportion of Candida albicans growth in media alone. […] Catalase was added to remove the peroxide effect noted above."}, "Candida albicans [2]": {"tested_on": "Candida albicans", "test": "Candida albicans growth by optical density, every 2 hrs up to 24 hrs (Example 1)", "settings": "single component alone, FIGS. 1 and 2", "protocol": "In this example, a manuka honey was mixed with lactoferrin at varying concentrations and the degree of Candida albicans growth was measured and compared to each of the individual components alone. Samples of honey alone being a manuka honey with a UMF rating of ˜15 were collected. The honey was diluted with distilled water to honey concentrations of 12.5, 11.25, 10, 8.75, 7.5 and 0% (w/v). Samples of lactoferrin alone were also collected and similarly diluted with distilled water to concentrations of 5 mg/mL (5%), 4.5 mg/mL (4.5%), 4 mg/mL (4%), 3.5 mg/mL (3.5%), 3 mg/mL (3%) and 0% (w/v). Mixed samples were then produced using honey concentrations of 12.5, 11.25, 10, 8.75, 7.5 and 0% (w/v) along with lactoferrin at a concentration of 5 mg/mL of lactoferrin. Four replications were completed for each of the samples. Microbial growth for each of the samples was then measured every 2 hrs continuously for up to 24 hrs, determined by measuring the optical density of the mixture."}, "Candida albicans [3]": {"tested_on": "Candida albicans", "test": "Candida albicans broth microtitre plate growth assay, absorbance at 650 nm, 28° C. (Example 4)", "settings": "honey alone (10% w/v, catalase) or lactoferrin alone (2.5-10 mg/ml); FIG. 6", "protocol": "A further set of Candida albicans repeat trials were completed where the growth of Candida albicans cultures in broth was measured when subjected to a 10% w/v manuka honey with catalase and lactoferrin treatments ranging from 2.5-10 mg/ml. To prevent filamentous growth, the assay temperature was 28° C. as used previously. The assay was a broth microtitre plate set-up. Growth was measured by absorbance at 650 nm. Catalase was added to remove the peroxide effect noted above."}}}
{"molecule": "B1", "values": [{"measurement": "percentage inhibition as a proportion of growth in media alone", "setting": "Candida albicans [1]", "value": "negligible effects"}, {"measurement": "difference to controls without honey or lactoferrin after 24 hours", "setting": "Candida albicans [2]; after 24 hours", "value": "little difference"}, {"measurement": "degree of inhibition of microbial growth", "setting": "Candida albicans [2]; honey 7.5-12.5% (w/v) or lactoferrin 3-5 mg/mL", "value": "relatively low"}, {"measurement": "inhibition of growth", "setting": "Candida albicans [3]", "value": "minimal inhibition"}]}
